# Measured values as given in US11111484B2, “Streptococcus bacteriophage lysins for detection and treatment of gram positive bacteria” (priority 2011, dated 2021).
# Read-outs that look alike come from different tables or passages of the source.
# B1: PlySs2: Streptococcus suis prophage lysin, SEQ ID NO:3; N-terminal CHAP domain and C-terminal SH3-type 5 domain (protein, listed as Streptococcus suis)
# chain: MTTVNEALNNVRAQVGSGVSVGNGECYALASWYERMISPDATVGLGAGVGWVSGAIGDTISAKNIGSSYNWQANGWTVSTSGPFKAGQIVTLGATPGNPYGHVVIVEAVDGDRLTILEQNYGGKRYPVRNYYSAASYRQQVVHYITPPGTVAQSAPNLAGSRSYRETGTMTVTVDALNVRRAPNTSGEIVAVYKRGESFDYDTVIIDVNGYVWVSYIGGSGKRNYVATGATKDGKRFGNAWGTFK
# B2: ΔPlySs1: truncated PlySs1 lysin, SEQ ID NO:2, N-terminal 254 amino acids: only N-terminal enzymatic and central binding domains (protein, listed as Streptococcus suis)
# chain: MTINLETSIRWMSDRVGKVSYSMDYRNGPNSYDCSSAVYYALMAGGAISAGWAVNTEYMHDWLIRNGYVLVAENKPFNAQRHDVCILGKRGYSSGAGGHVVIFVDNVNVIHCNYARNGISIDNYNQVHRGMYYYLYRPANQPSISNKSLDQLVKETLAGVHGNGDTRKASLGSQYEAVMAVINGKASASEKSDEELAREVLAGKHGAGEDRKRSLGPRYEPVQAKVNELLKAKEKPSETAKNEPQTVQFKEDGDL
# Assays:
# L. monocytogenes = experiment: CFU studies, bactericidal effect; type: cell-based, Listeria monocytogenes; details: 128 μg/ml PlySs2, 60 mins
# Procedure: Log-phase bacteria were resuspended in buffer A to an OD600 of 0.1 (=0.5 McFarland≈10^8 CFU/ml). PlySs2 was added at 128 μg/ml to polypropylene microtiter plates (Costar) in triplicate for each test organism. Plates were sealed and incubated at 37° C. with shaking every 5 minutes for 1 hour. After 1 hour of incubation, cells were serially diluted in 10-fold increments and plated on BHI. Triplicate controls for each strain were performed with buffer B replacing PlySs2.
# S. pyogenes A486 = experiment: ΔPlySs1 OD600 lysis, 1 hr, optimal buffering conditions; type: cell-based, Streptococcus pyogenes
# S. suis ST9 = experiment: as above; type: cell-based, Streptococcus suis
# Procedure: (§1) Truncated PlySs1(ΔPlySs1) lysin activity was determined against different cell types. Given the above experiments, the following optimal buffering conditions were employed for all further in vitro experiments with ΔPlySs1: 20 mM phosphate buffer, pH=7.8, 2 mM EDTA. A range of lysin concentrations, from 6.5-130 μg/ml, were introduced to live S. suis cells in this buffer. Three strains were considered particularly relevant: 7711, the serotype 7 strain that encodes PlySs1; S735, the serotype 2 reference strain; and 7997, a highly virulent serotype 9 strain. In terms of bacterial viability, only the highest PlySs1-concentration (130 μg/ml) led to a >90% decrease in CFUs for 7711, S735, and 7997 after 1 hr treatment (TABLE 2). The lysin was also tested against actively-dividing cells in broth culture (strain 7711) (FIG. 20).
# (§2) ΔPlySs1 was further tested against a panel of 19 other S. suis strains of diverse serotypes, as well as other species of Gram-positive bacteria. The same lysin concentrations were used as above. For each dosage, the observed lysis values after 1 hr are listed in TABLE 3 and TABLE 4, and the information is summarized graphically in FIG. 21.
# S. suis ST8 = experiment: as above; type: cell-based, Streptococcus suis
# Procedure: as §1, §2
# S. suis 8076 (ST9) = experiment: as above; type: cell-based, Streptococcus suis
# Procedure: as §1, §2
# S. suis ST5 = experiment: as above; type: cell-based, Streptococcus suis
# Procedure: as §1, §2
# S. suis 7197 (ST7) = experiment: as above; type: cell-based, Streptococcus suis
# Procedure: as §1, §2
# S. suis 6388 (ST1) = experiment: as above; type: cell-based, Streptococcus suis
# Procedure: as §1, §2
# S. suis ST11 = experiment: as above; type: cell-based, Streptococcus suis
# Procedure: as §1, §2
# S. suis ST2 = experiment: as above; type: cell-based, Streptococcus suis
# Procedure: as §1, §2
# S. suis 6112 (ST1) = experiment: as above; type: cell-based, Streptococcus suis
# Procedure: as §1, §2
# E. faecalis V583 = experiment: as above; type: cell-based, Enterococcus faecalis
# B. anthracis ΔSterne = type: cell-based, Bacillus anthracis
# S. rattus BHT = experiment: ΔPlySs1 OD600 lysis, 1 hr, optimal buffering conditions; type: cell-based, Streptococcus rattus
# B. subtilis SL4 = experiment: as above; type: cell-based, Bacillus subtilis
# [1] = tested on: Group E streptococci K131; experiment: as above; type: cell-based
molecule,measurement,setting,value
B1,reduction in CFU counts,L. monocytogenes,dramatically reduced
B2,lysis value after 1 hr (treated/untreated OD600 ratio),S. pyogenes A486; 6.5 μg/ml,0.12
same,lysis value after 1 hr (treated/untreated OD600 ratio),S. pyogenes A486; 13 μg/ml,0.13
same,lysis value after 1 hr (treated/untreated OD600 ratio),S. pyogenes A486; 30 μg/ml,0.13
same,lysis value after 1 hr (treated/untreated OD600 ratio),S. pyogenes A486; 65 μg/ml,0.11
same,lysis value after 1 hr (treated/untreated OD600 ratio),S. pyogenes A486; 130 μg/ml,0.10
same,1-hour treated/untreated OD600-ratio,S. suis ST9; 6.5 μg/ml,0.50
same,1-hour treated/untreated OD600-ratio,S. suis ST9; 13 μg/ml,0.30
same,1-hour treated/untreated OD600-ratio,S. suis ST9; 30 μg/ml,0.23
same,1-hour treated/untreated OD600-ratio,S. suis ST9; 65 μg/ml,0.13
same,1-hour treated/untreated OD600-ratio,S. suis ST9; 130 μg/ml,0.05
same,1-hour treated/untreated OD600-ratio,S. suis ST8; 6.5 μg/ml,0.25
same,1-hour treated/untreated OD600-ratio,S. suis ST8; 13 μg/ml,0.12
same,1-hour treated/untreated OD600-ratio,S. suis ST8; 30 μg/ml,0.06
same,1-hour treated/untreated OD600-ratio,S. suis ST8; 65 μg/ml,0.03
same,1-hour treated/untreated OD600-ratio,S. suis ST8; 130 μg/ml,0.03
same,1-hour treated/untreated OD600-ratio,S. suis 8076 (ST9); 6.5 μg/ml,0.52
same,1-hour treated/untreated OD600-ratio,S. suis 8076 (ST9); 13 μg/ml,0.40
same,1-hour treated/untreated OD600-ratio,S. suis 8076 (ST9); 30 μg/ml,0.21
same,1-hour treated/untreated OD600-ratio,S. suis 8076 (ST9); 65 μg/ml,0.14
same,1-hour treated/untreated OD600-ratio,S. suis 8076 (ST9); 130 μg/ml,0.04
same,1-hour treated/untreated OD600-ratio,S. suis ST5; 6.5 μg/ml,0.78
same,1-hour treated/untreated OD600-ratio,S. suis ST5; 13 μg/ml,0.59
same,1-hour treated/untreated OD600-ratio,S. suis ST5; 30 μg/ml,0.39
same,1-hour treated/untreated OD600-ratio,S. suis ST5; 65 μg/ml,0.22
same,1-hour treated/untreated OD600-ratio,S. suis ST5; 130 μg/ml,0.10
same,1-hour treated/untreated OD600-ratio,S. suis 7197 (ST7); 6.5 μg/ml,0.64
same,1-hour treated/untreated OD600-ratio,S. suis 7197 (ST7); 13 μg/ml,0.49
same,1-hour treated/untreated OD600-ratio,S. suis 7197 (ST7); 30 μg/ml,0.39
same,1-hour treated/untreated OD600-ratio,S. suis 7197 (ST7); 65 μg/ml,0.16
same,1-hour treated/untreated OD600-ratio,S. suis 7197 (ST7); 130 μg/ml,0.07
same,1-hour treated/untreated OD600-ratio,S. suis 6388 (ST1); 6.5 μg/ml,0.15
same,1-hour treated/untreated OD600-ratio,S. suis 6388 (ST1); 13 μg/ml,0.13
same,1-hour treated/untreated OD600-ratio,S. suis 6388 (ST1); 30 μg/ml,0.06
same,1-hour treated/untreated OD600-ratio,S. suis 6388 (ST1); 65 μg/ml,0.03
same,1-hour treated/untreated OD600-ratio,S. suis 6388 (ST1); 130 μg/ml,0.02
same,1-hour treated/untreated OD600-ratio,S. suis ST11; 6.5 μg/ml,0.64
same,1-hour treated/untreated OD600-ratio,S. suis ST11; 13 μg/ml,0.47
same,1-hour treated/untreated OD600-ratio,S. suis ST11; 30 μg/ml,0.32
same,1-hour treated/untreated OD600-ratio,S. suis ST11; 65 μg/ml,0.19
same,1-hour treated/untreated OD600-ratio,S. suis ST11; 130 μg/ml,0.07
same,1-hour treated/untreated OD600-ratio,S. suis ST2; 6.5 μg/ml,0.79
same,1-hour treated/untreated OD600-ratio,S. suis ST2; 13 μg/ml,0.70
same,1-hour treated/untreated OD600-ratio,S. suis ST2; 30 μg/ml,0.49
same,1-hour treated/untreated OD600-ratio,S. suis ST2; 65 μg/ml,0.34
same,1-hour treated/untreated OD600-ratio,S. suis ST2; 130 μg/ml,0.17
same,1-hour treated/untreated OD600-ratio,S. suis 6112 (ST1); 6.5 μg/ml,0.14
same,1-hour treated/untreated OD600-ratio,S. suis 6112 (ST1); 13 μg/ml,0.11
same,1-hour treated/untreated OD600-ratio,S. suis 6112 (ST1); 30 μg/ml,0.06
same,1-hour treated/untreated OD600-ratio,S. suis 6112 (ST1); 65 μg/ml,0.02
same,1-hour treated/untreated OD600-ratio,S. suis 6112 (ST1); 130 μg/ml,0.01
same,lysis value after 1 hr (treated/untreated OD600 ratio),E. faecalis V583; 6.5 μg/ml,0.98
same,lysis value after 1 hr (treated/untreated OD600 ratio),E. faecalis V583; 13 μg/ml,0.93
same,lysis value after 1 hr (treated/untreated OD600 ratio),E. faecalis V583; 30 μg/ml,0.84
same,lysis value after 1 hr (treated/untreated OD600 ratio),E. faecalis V583; 65 μg/ml,0.71
same,lysis value after 1 hr (treated/untreated OD600 ratio),E. faecalis V583; 130 μg/ml,0.52
same,lysis value after 1 hr (treated/untreated OD600 ratio),B. anthracis ΔSterne; 6.5 μg/ml,1.02
same,lysis value after 1 hr (treated/untreated OD600 ratio),B. anthracis ΔSterne; 30 μg/ml,1.02
same,lysis value after 1 hr (treated/untreated OD600 ratio),B. anthracis ΔSterne; 65 μg/ml,0.98
same,lysis value after 1 hr (treated/untreated OD600 ratio),B. anthracis ΔSterne; 130 μg/ml,0.90
same,lysis value after 1 hr (treated/untreated OD600 ratio),S. rattus BHT; 6.5 μg/ml,0.82
same,lysis value after 1 hr (treated/untreated OD600 ratio),S. rattus BHT; 13 μg/ml,0.84
same,lysis value after 1 hr (treated/untreated OD600 ratio),S. rattus BHT; 30 μg/ml,0.82
same,lysis value after 1 hr (treated/untreated OD600 ratio),S. rattus BHT; 65 μg/ml,0.83
same,lysis value after 1 hr (treated/untreated OD600 ratio),S. rattus BHT; 130 μg/ml,0.79
same,lysis value after 1 hr (treated/untreated OD600 ratio),B. subtilis SL4; 6.5 μg/ml,1.07
same,lysis value after 1 hr (treated/untreated OD600 ratio),B. subtilis SL4; 13 μg/ml,1.05
same,lysis value after 1 hr (treated/untreated OD600 ratio),B. subtilis SL4; 30 μg/ml,1.04
same,lysis value after 1 hr (treated/untreated OD600 ratio),B. subtilis SL4; 65 μg/ml,1.03
same,lysis value after 1 hr (treated/untreated OD600 ratio),B. subtilis SL4; 130 μg/ml,0.96
same,lysis value after 1 hr (treated/untreated OD600 ratio),[1]; 6.5 μg/ml,0.69
same,lysis value after 1 hr (treated/untreated OD600 ratio),[1]; 13 μg/ml,0.50
same,lysis value after 1 hr (treated/untreated OD600 ratio),[1]; 30 μg/ml,0.33
same,lysis value after 1 hr (treated/untreated OD600 ratio),[1]; 65 μg/ml,0.22
same,lysis value after 1 hr (treated/untreated OD600 ratio),[1]; 130 μg/ml,0.15
